Data from patent US7053185B1, “Lactalbumin production process” (HAMLET Pharma AB, priority 1997, dated 2006).

B1: Native, monomeric α-lactalbumin: native human milk α-lactalbumin converted to multimeric form on casein conditioned column, eluting at MAL position (protein, UniProt P00709 20-142, looked up)
Alpha-lactalbumin: KQFTKCELSQLLKDIDGYGGIALPELICTMFHTSGYDTQAIVENNESTEYGLFQISNKLWCKSSQVPQSRNICDISCDKFLDDDITDDIMCAKKILDIKGIDYWLAHKALCTEKLEQWLCEKL
modifications: multimeric form
notes: native human milk α-lactalbumin converted to multimeric form on casein conditioned column, eluting at MAL position
B2: Human α-lactalbumin+, EDTA pre-treatment + EDTA buffer, MAL Peak 1: first peak from EDTA treated human milk α-lactalbumin run with EDTA buffers on casein trained column (protein, UniProt P00709 20-142, looked up)
Alpha-lactalbumin: B1 Alpha-lactalbumin
modifications: multimeric form
notes: first peak from EDTA treated human milk α-lactalbumin run with EDTA buffers on casein trained column
B3: Commercial human α-lactalbumin, Untreated, MAL Peak 1: first MAL peak from commercial (Sigma) human α-lactalbumin run on casein trained column (protein, UniProt P00709 20-142, looked up)
Alpha-lactalbumin: B1 Alpha-lactalbumin
modifications: multimeric form
notes: first MAL peak from commercial (Sigma) human α-lactalbumin run on casein trained column
B4: Example 1: multimeric product from commercial monomeric human α-lactalbumin on matrix pre-run with human milk casein (protein, UniProt P00709 20-142, looked up)
Alpha-lactalbumin: B1 Alpha-lactalbumin
modifications: multimeric form
notes: multimeric product from commercial monomeric human α-lactalbumin on matrix pre-run with human milk casein
B5: Human α-lactalbumin+, EDTA pre-treated, MAL Peak 2: second peak from EDTA pre-treated human milk α-lactalbumin, casein trained column (protein, UniProt P00709 20-142, looked up)
Alpha-lactalbumin: B1 Alpha-lactalbumin
modifications: multimeric form
notes: second peak from EDTA pre-treated human milk α-lactalbumin, casein trained column
B6: monomeric α-lactalbumin in the molten globule-like state: converted on clean matrix conditioned with lipids extracted from casein conditioned column; single peak at MAL position (protein, UniProt P00709 20-142, looked up)
Alpha-lactalbumin: B1 Alpha-lactalbumin
modifications: molten globule form
notes: converted on clean matrix conditioned with lipids extracted from casein conditioned column; single peak at MAL position
B7: Human α-lactalbumin+, Untreated, MAL Peak 2: second peak from human milk α-lactalbumin (ammonium sulphate precipitation), untreated, casein trained column (protein, UniProt P00709 20-142, looked up)
Alpha-lactalbumin: B1 Alpha-lactalbumin
modifications: multimeric form
notes: second peak from human milk α-lactalbumin (ammonium sulphate precipitation), untreated, casein trained column
B8: Human α-lactalbumin+, EDTA pre-treated, MAL Peak 1: first peak from EDTA pre-treated human milk α-lactalbumin, casein trained column (protein, UniProt P00709 20-142, looked up)
Alpha-lactalbumin: B1 Alpha-lactalbumin
modifications: multimeric form
notes: first peak from EDTA pre-treated human milk α-lactalbumin, casein trained column
B9: Human α-lactalbumin+, EDTA pre-treatment + EDTA buffer, MAL Peak 2: second peak from EDTA treated human milk α-lactalbumin run with EDTA buffers on casein trained column (protein, UniProt P00709 20-142, looked up)
Alpha-lactalbumin: B1 Alpha-lactalbumin
modifications: multimeric form
notes: second peak from EDTA treated human milk α-lactalbumin run with EDTA buffers on casein trained column
B10: α-lactalbumin treated with EDTA: EDTA treated α-lactalbumin completely converted to oligomeric form on casein conditioned column (protein, UniProt P00709 20-142, looked up)
Alpha-lactalbumin: B1 Alpha-lactalbumin
modifications: oligomeric form
notes: EDTA treated α-lactalbumin completely converted to oligomeric form on casein conditioned column
B11: Human α-lactalbumin+, Untreated, MAL Peak 1: first peak from human milk α-lactalbumin (ammonium sulphate precipitation), untreated, casein trained column (protein, UniProt P00709 20-142, looked up)
Alpha-lactalbumin: B1 Alpha-lactalbumin
modifications: multimeric form
notes: first peak from human milk α-lactalbumin (ammonium sulphate precipitation), untreated, casein trained column
B12: MAL: oligomeric complex of α-lactalbumin in molten globule-like state, from human milk casein by ion exchange, eluting at 1M NaCl (protein, UniProt P00709 20-142, looked up)
Alpha-lactalbumin: B1 Alpha-lactalbumin
modifications: oligomeric molten globule form
notes: oligomeric complex of α-lactalbumin in molten globule-like state, from human milk casein by ion exchange, eluting at 1M NaCl
B13: Commercial human α-lactalbumin, Untreated, MAL Peak 2: second MAL peak from commercial (Sigma) human α-lactalbumin run on casein trained column (protein, UniProt P00709 20-142, looked up)
Alpha-lactalbumin: B1 Alpha-lactalbumin
modifications: multimeric form
notes: second MAL peak from commercial (Sigma) human α-lactalbumin run on casein trained column
B14: 2: multimeric product from monomeric bovine α-lactalbumin on matrix pre-run with human milk casein (protein, UniProt P00711 20-142, looked up)
Alpha-lactalbumin: EQLTKCEVFRELKDLKGYGGVSLPEWVCTTFHTSGYDTQAIVQNNDSTEYGLFQINNKIWCKDDQNPHSSNICNISCDKFLDDDLTDDIMCVKKILDKVGINYWLAHKALCSEKLDQWLCEKL
modifications: multimeric form
notes: multimeric product from monomeric bovine α-lactalbumin on matrix pre-run with human milk casein

How the values were obtained:
tumour cell lines [1] = assay: Tumour cell line viability, vital dye (trypan blue); type: cell-based; details: for activity compared with protein isolated from human milk casein: tumour cell lines
Procedure: The two peaks which are believed to contain MAL were kept separately and tested individually. Testing was carried out as described hereinafter in Example 4. Representative results are set out in Table 1.
(§1) The biological efficacy of the products obtained in the above Examples 1 and 2 above was tested using tumour cell lines as described in Hakansson et al (1995) supra. Cell lines were incubated with samples of the products at various concentrations in cell culture media at 37° C. for various time points. After incubation, the cells are harvested and the cell viability determined using a vital dye (trypan blue).

tumour cell lines [2] = assay: Apoptosis: oligonucleosome length DNA fragments by agarose gel electrophoresis; type: cell-based; details: material eluting at MAL position (1 M NaCl)
Procedure: as §1
(§2) Oligonucleosome length DNA fragments were detected by agarose gel electrophoresis. Cells (2×10^6) were lysed in 5 mM Tris, 20 mM EDTA, 0.5% Triton X-100 pH 8.0 at 4° C. for 1 hour and centrifuged at 13,000×g for 15 minutes. DNA was ethanol precipitated overnight in −20° C., treated with proteinase K and RNAse, loaded on 1.8% agarose gels and electrophoresed with constant voltage set at 50V overnight. DNA fragments were visualized with ethidium bromide using a 305 nm UV-light source and photographed using Polaroid type 55 positive-negative film.

L1210 cells = assay: Apoptosis-inducing activity / DNA fragmentation in L1210 cells; type: cell-based; details: 0.7 mg/ml
Procedure: as §2
The lipid concentration was defined in “MAL equivalents” as the amount extracted from a defined mass of MAL. […] However, lipids from 0.5 or 1 mg of MAL had no effect on cell viability or DNA fragmentation. […] MAL lipids were not active at concentrations when intact MAL killed the cells.

[3] = tested on: cancer cells and immature cells; details: cancer cells and immature cells versus healthy cells; cited from earlier work

| Molecule | Viability of tumour cells (tumour cell lines [1]; Dosage 0.5 mg/ml) | Viability of tumour cells (tumour cell lines [1]; Dosage 1.0 mg/ml) | further results |
| --- | --- | --- | --- |
| Commercial bovine α-lactalbumin, untreated, MAL Peak 1: first MAL peak from commercial (Sigma) bovine α-lactalbumin run on casein trained column | 0% | – | Viability of tumour cells (tumour cell lines [1]; Dosage 0.3 mg/ml): 50% |
| Commercial bovine α-lactalbumin, untreated, MAL Peak 2: second MAL peak from commercial (Sigma) bovine α-lactalbumin run on casein trained column | 98% | 98% | – |
| B1 | – | – | apoptosis-inducing / biological activity of converted material (tumour cell lines [2]): no apoptosis-inducing activity |
| B2 | 0% | 0% | – |
| B3 | 0% | 0% | – |
| B4 | – | – | activity compared with protein isolated from human milk casein (tumour cell lines [1]): similar |
| B5 | – | – | Viability of tumour cells (tumour cell lines [1]; Dosage ca. 1.5 mg/ml): 98% |
| B6 | – | – | apoptosis-inducing / biological activity of converted material (tumour cell lines [2]): apoptosis-inducing activity |
| B7 | – | 95% | – |
| B8 | – | 0% | – |
| B9 | 89% | 0% | – |
| B10 | – | – | apoptosis-inducing / biological activity of converted material (tumour cell lines [2]): significant biological activity |
| B11 | – | 79% | – |
| B12 | – | – | apoptosis induction (reduction of cell viability, DNA fragments) (L1210 cells): induced apoptosis; apoptotic cell death [3]: induces apoptotic cell death in cancer cells and immature cells, but not in healthy cells |
| B13 | – | 0% | – |
| B14 | – | – | activity compared with protein isolated from human milk casein (tumour cell lines [1]): similar |
